B1: mRNA-splicing (parent)
chain: AGUUGCUGCUGGGAGCUCCAGCACAGUGAAAUGGACAGAAGGGCAGAGCAA

Variants of: B1
Test: exon inclusion enrichment index; higher = more inclusion; WT1 exon 5 minigene, HEK293

Variant | exon inclusion enrichment index
AGUUGCUGCUGGGAGCUCCAGCACAGUGAAAUGGACAUGAGGGCAGAGCAA | 0.0472
AGUUGCUGCUGGGAGCUCCAGCACAGUGAAAUGGACAUUAGGGCAGAGCAA | 0.000945
AGUUGCUGCUGGGAGCUCCAGCACAGUGAAAUGGACAUCAGGGCAGAGCAA | 0.125
AGUUGCUGCUGGGAGCUCCAGCACAGUGAAAUGUACAGAAGGGCAGAGCAA | 0.0244
AGUUGCUGCUGGGAGCUCCAGCACAGUGAAAUGAACAGAAGGGCAGAGCAA | 0.0592
AGUUGCUGCUGGGAGCUCCAGCACAGUGAAAUGCACAGAAGGGCAGAGCAA | 0.0362
AGUUGCUGCUGGGAGCUCCAGCACAGUGAAAUACACAGAAGGGCAGAGCAA | 0.0101
AGUUGCUGCUGGGAGCUCCAGCACAGUGAAAUAAACAGAAGGGCAGAGCAA | 0.0101
AGUUGCUGCUGGGAGCUCCAGCACAGUGAAAUAUACAGAAGGGCAGAGCAA | 0.0122
AGUUGCUGCUGGGAGCUCCAGCACAGUGAAAUGGAGGGAAGGGCAGAGCAA | 0.0334
AGUUGCUGCUGGGAGCUCCAGCACAGUGAAAUGGAGUGAAGGGCAGAGCAA | 0.0724
AGUUGCUGCUGGGAGCUCCAGCACAGUGAAAUGGAGCGAAGGGCAGAGCAA | 0.127
AGUUGCUGCUGGGAGCUCCAGCACAGUGAAAUUAACAGAAGGGCAGAGCAA | 0.00421
AGUUGCUGCUGGGAGCUCCAGCACAGUGAAAUUCACAGAAGGGCAGAGCAA | 0.0208
AGUUGCUGCUGGGAGCUCCAGCACAGUGAAAUUUACAGAAGGGCAGAGCAA | 0.0123
AGUUGCUGCUGGGAGCUCCAGCACAGUGAAACCGACAGAAGGGCAGAGCAA | 0.303
AGUUGCUGCUGGGAGCUCCAGCACAGUGAAACAGACAGAAGGGCAGAGCAA | 0.0354
AGUUGCUGCUGGGAGCUCCAGCACAGUGAAACUGACAGAAGGGCAGAGCAA | 0.0526
AGUUGCUGCUGGGAGCUCCAGCACAGUGAAAUUGACAGAAGGGCAGAGCAA | 0.0261
AGUUGCUGCUGGGAGCUCCAGCACAGUGAAAUCGACAGAAGGGCAGAGCAA | 0.179
AGUUGCUGCUGGGAGCUCCAGCACAGUGAAAUAGACAGAAGGGCAGAGCAA | 0.0129
AGUUGCUGCUGGGAGCUCCAGCACAGUGAAAUGGACAAAAGGGCAGAGCAA | 0.0459
AGUUGCUGCUGGGAGCUCCAGCACAGUGAAAUGGACACAAGGGCAGAGCAA | 0.09
AGUUGCUGCUGGGAGCUCCAGCACAGUGAAAUGGACAUAAGGGCAGAGCAA | 0.029
AGUUGCUGCUGGGAGCUCCAGCACAGUGAAAAUGACAGAAGGGCAGAGCAA | 0.0657
AGUUGCUGCUGGGAGCUCCAGCACAGUGAAAAAGACAGAAGGGCAGAGCAA | 0.0558

Variant | exon inclusion enrichment index
AGUUGCUGCUGGGAGCUCCAGCACAGUGAAAACGACAGAAGGGCAGAGCAA | 0.181
AGUUGCUGCUGGGAGCUCCAGCACAGUGAUCUGGACAGAAGGGCAGAGCAA | 0.202
AGUUGCUGCUGGGAGCUCCAGCACAGUGAUGUGGACAGAAGGGCAGAGCAA | 0.155
AGUUGCUGCUGGGAGCUCCAGCACAGUGAUUUGGACAGAAGGGCAGAGCAA | 0.087
AGUUGCUGCUGGGAGCUCCAGCACAGUGAAAUGGCGAGAAGGGCAGAGCAA | 0.122
AGUUGCUGCUGGGAGCUCCAGCACAGUGAAAUGGCUAGAAGGGCAGAGCAA | 0.00835
AGUUGCUGCUGGGAGCUCCAGCACAGUGAAAUGGCAAGAAGGGCAGAGCAA | 0.0616
AGUUGCUGCUGGGAGCUCCAGCACAGUGAAAUGGACACGAGGGCAGAGCAA | 0.21
AGUUGCUGCUGGGAGCUCCAGCACAGUGAAAUGGACACCAGGGCAGAGCAA | 0.158
AGUUGCUGCUGGGAGCUCCAGCACAGUGAAAUGGACACUAGGGCAGAGCAA | 0.00812
AGUUGCUGCUGGGAGCUCCAGCACAGUGAAAUGGUCAGAAGGGCAGAGCAA | 0.0139
AGUUGCUGCUGGGAGCUCCAGCACAGUGAAAUGGCCAGAAGGGCAGAGCAA | 0.041
AGUUGCUGCUGGGAGCUCCAGCACAGUGAAAUGGGCAGAAGGGCAGAGCAA | 0.0494
AGUUGCUGCUGGGAGCUCCAGCACAGUGAAAUGGACAACAGGGCAGAGCAA | 0.13
AGUUGCUGCUGGGAGCUCCAGCACAGUGAAAUGGACAAGAGGGCAGAGCAA | 0.186
AGUUGCUGCUGGGAGCUCCAGCACAGUGAAAUGGACAAUAGGGCAGAGCAA | 0.00515
AGUUGCUGCUGGGAGCUCCAGCACAGUGAAAUGUCCAGAAGGGCAGAGCAA | 0.0394
AGUUGCUGCUGGGAGCUCCAGCACAGUGAAAUGUUCAGAAGGGCAGAGCAA | 0.0144
AGUUGCUGCUGGGAGCUCCAGCACAGUGAAAUGUGCAGAAGGGCAGAGCAA | 0.142
AGUUGCUGCUGGGAGCUCCAGCACAGUGAACUGGACAGAAGGGCAGAGCAA | 0.288
AGUUGCUGCUGGGAGCUCCAGCACAGUGAAGUGGACAGAAGGGCAGAGCAA | 0.255
AGUUGCUGCUGGGAGCUCCAGCACAGUGAAUUGGACAGAAGGGCAGAGCAA | 0.159
AGUUGCUGCUGGGAGCUCCAGCACAGUGAAAUGGACGCAAGGGCAGAGCAA | 0.249
AGUUGCUGCUGGGAGCUCCAGCACAGUGAAAUGGACGAAAGGGCAGAGCAA | 0.201
AGUUGCUGCUGGGAGCUCCAGCACAGUGAAAUGGACGUAAGGGCAGAGCAA | 0.0457
